± gives the standard deviation of the averaged measurements.
B1: library; a variant is named by its letters at N, in order (parent)
chain: GCUGUCACCGAGAAACUGUGAAGUAUAUCUUAAACCUGGGCACUUAAAAGAUAUAUGGAGUUAGUAGUGCAACCUGCUCGGUCUGAUGAGUCCNNNNNNGGACGAAACAGC

Tests used:
cyclic di-GMP [1] = variants of: B1; assay: normalized RNA/DNA level without ligand (relative to sTRSVctl = 100) (log10 (% of sTRSVctl)); HEK293T; ligand: cyclic di-GMP (c-di-GMP-II aptamer); higher = less ribozyme self-cleavage, higher mRNA level; conditions: reporter: mCherry (pCS4076), ligand present: no
Method in brief: (§1)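 Library plasmids carrying ribozyme switches linked to mCherry, or to eGFP in some ligand experiments, were transfected into HEK293T at 4 µg per 6-well well, with any ligand added 1 h earlier. Seventy-two hours on, total RNA was extracted with EDTA and reverse-transcribed, amplified, barcoded and sequenced. RNA level was RNA over DNA reads normalized to a spiked-in non-cleaving sequence or to the top sequences, then scaled and log-transformed. The top set was 25 sequences, the transform was ×100 and log10, and sequences needed ≥100 DNA reads.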

cyclic di-GMP [2] = variants of: B1; assay: normalized RNA/DNA level with ligand (relative to sTRSVctl = 100) (log10 (% of sTRSVctl)); HEK293T; ligand: cyclic di-GMP (c-di-GMP-II aptamer); ligand concentration (+) RNA-Seq: 1 mM; higher = less ribozyme self-cleavage, higher mRNA level; conditions: reporter: mCherry (pCS4076), ligand present: yes
Method in brief: as §1

Row | Variant | normalized RNA/DNA level without ligand (log10) (cyclic di-GMP [1]) | normalized RNA/DNA level with ligand (log10) (cyclic di-GMP [2])
1 | GCUGUCACCGAGAAACUGUGAAGUAUAUCUUAAACCUGGGCACUUAAAAGAUAUAUGGAGUUAGUAGUGCAACCUGCUCGGUCUGAUGAGUCCAUCCGAGGACGAAACAGC [AUCCGA] | 1.56 ± 0.017 | 1.73 ± 0.15
2 | GCUGUCACCGAGAAACUGUGAAGUAUAUCUUAAACCUGGGCACUUAAAAGAUAUAUGGAGUUAGUAGUGCAACCUGCUCGGUCUGAUGAGUCCACUGUCGGACGAAACAGC [ACUGUC] | 1.63 ± 0.036 | 1.8 ± 0.15
3 | GCUGUCACCGAGAAACUGUGAAGUAUAUCUUAAACCUGGGCACUUAAAAGAUAUAUGGAGUUAGUAGUGCAACCUGCUCGGUCUGAUGAGUCCCCGCAGGGACGAAACAGC [CCGCAG] | 1.54 ± 0.054 | 1.67 ± 0.12
4 | GCUGUCACCGAGAAACUGUGAAGUAUAUCUUAAACCUGGGCACUUAAAAGAUAUAUGGAGUUAGUAGUGCAACCUGCUCGGUCUGAUGAGUCCAAUUGAGGACGAAACAGC [AAUUGA] | 1.49 ± 0.096 | 1.72 ± 0.083
5 | GCUGUCACCGAGAAACUGUGAAGUAUAUCUUAAACCUGGGCACUUAAAAGAUAUAUGGAGUUAGUAGUGCAACCUGCUCGGUCUGAUGAGUCCAGAGGCGGACGAAACAGC [AGAGGC] | 1.665 ± 0.0051 | 1.77 ± 0.13
6 | GCUGUCACCGAGAAACUGUGAAGUAUAUCUUAAACCUGGGCACUUAAAAGAUAUAUGGAGUUAGUAGUGCAACCUGCUCGGUCUGAUGAGUCCCUUACCGGACGAAACAGC [CUUACC] | 1.77 ± 0.049 | 1.86 ± 0.15
7 | GCUGUCACCGAGAAACUGUGAAGUAUAUCUUAAACCUGGGCACUUAAAAGAUAUAUGGAGUUAGUAGUGCAACCUGCUCGGUCUGAUGAGUCCACUUGCGGACGAAACAGC [ACUUGC] | 1.69 ± 0.029 | 1.83 ± 0.084
8 | GCUGUCACCGAGAAACUGUGAAGUAUAUCUUAAACCUGGGCACUUAAAAGAUAUAUGGAGUUAGUAGUGCAACCUGCUCGGUCUGAUGAGUCCCAGCGGGGACGAAACAGC [CAGCGG] | 1.78 ± 0.032 | 1.9 ± 0.14
9 | GCUGUCACCGAGAAACUGUGAAGUAUAUCUUAAACCUGGGCACUUAAAAGAUAUAUGGAGUUAGUAGUGCAACCUGCUCGGUCUGAUGAGUCCGGCAUGGGACGAAACAGC [GGCAUG] | 1.68 ± 0.085 | 1.7 ± 0.081
10 | GCUGUCACCGAGAAACUGUGAAGUAUAUCUUAAACCUGGGCACUUAAAAGAUAUAUGGAGUUAGUAGUGCAACCUGCUCGGUCUGAUGAGUCCUGCGUAGGACGAAACAGC [UGCGUA] | 1.6 ± 0.029 | 1.81 ± 0.1
11 | GCUGUCACCGAGAAACUGUGAAGUAUAUCUUAAACCUGGGCACUUAAAAGAUAUAUGGAGUUAGUAGUGCAACCUGCUCGGUCUGAUGAGUCCGUUUCAGGACGAAACAGC [GUUUCA] | 1.648 ± 0.0058 | 1.79 ± 0.12
12 | GCUGUCACCGAGAAACUGUGAAGUAUAUCUUAAACCUGGGCACUUAAAAGAUAUAUGGAGUUAGUAGUGCAACCUGCUCGGUCUGAUGAGUCCGCAUGGGGACGAAACAGC [GCAUGG] | 1.46 ± 0.15 | 1.67 ± 0.064
13 | GCUGUCACCGAGAAACUGUGAAGUAUAUCUUAAACCUGGGCACUUAAAAGAUAUAUGGAGUUAGUAGUGCAACCUGCUCGGUCUGAUGAGUCCCUACCAGGACGAAACAGC [CUACCA] | 1.621 ± 0.016 | 1.79 ± 0.12
14 | GCUGUCACCGAGAAACUGUGAAGUAUAUCUUAAACCUGGGCACUUAAAAGAUAUAUGGAGUUAGUAGUGCAACCUGCUCGGUCUGAUGAGUCCGCGGCGGGACGAAACAGC [GCGGCG] | 1.842 ± 0.0045 | 1.9 ± 0.057
15 | GCUGUCACCGAGAAACUGUGAAGUAUAUCUUAAACCUGGGCACUUAAAAGAUAUAUGGAGUUAGUAGUGCAACCUGCUCGGUCUGAUGAGUCCCAGAGCGGACGAAACAGC [CAGAGC] | 1.67 ± 0.036 | 1.83 ± 0.09
16 | GCUGUCACCGAGAAACUGUGAAGUAUAUCUUAAACCUGGGCACUUAAAAGAUAUAUGGAGUUAGUAGUGCAACCUGCUCGGUCUGAUGAGUCCUAAUAAGGACGAAACAGC [UAAUAA] | 1.66 ± 0.018 | 1.8 ± 0.085
17 | GCUGUCACCGAGAAACUGUGAAGUAUAUCUUAAACCUGGGCACUUAAAAGAUAUAUGGAGUUAGUAGUGCAACCUGCUCGGUCUGAUGAGUCCCAUAGGGGACGAAACAGC [CAUAGG] | 1.688 ± 0.011 | 1.85 ± 0.093
18 | GCUGUCACCGAGAAACUGUGAAGUAUAUCUUAAACCUGGGCACUUAAAAGAUAUAUGGAGUUAGUAGUGCAACCUGCUCGGUCUGAUGAGUCCGCAGUCGGACGAAACAGC [GCAGUC] | 1.31 ± 0.064 | 1.51 ± 0.1
19 | GCUGUCACCGAGAAACUGUGAAGUAUAUCUUAAACCUGGGCACUUAAAAGAUAUAUGGAGUUAGUAGUGCAACCUGCUCGGUCUGAUGAGUCCAGGUUCGGACGAAACAGC [AGGUUC] | 1.75 ± 0.026 | 1.86 ± 0.14
20 | GCUGUCACCGAGAAACUGUGAAGUAUAUCUUAAACCUGGGCACUUAAAAGAUAUAUGGAGUUAGUAGUGCAACCUGCUCGGUCUGAUGAGUCCAGGUUUGGACGAAACAGC [AGGUUU] | 1.7 ± 0.04 | 1.85 ± 0.11
21 | GCUGUCACCGAGAAACUGUGAAGUAUAUCUUAAACCUGGGCACUUAAAAGAUAUAUGGAGUUAGUAGUGCAACCUGCUCGGUCUGAUGAGUCCUCAGAAGGACGAAACAGC [UCAGAA] | 1.35 ± 0.17 | 1.65 ± 0.14
22 | GCUGUCACCGAGAAACUGUGAAGUAUAUCUUAAACCUGGGCACUUAAAAGAUAUAUGGAGUUAGUAGUGCAACCUGCUCGGUCUGAUGAGUCCUAGCGUGGACGAAACAGC [UAGCGU] | 1.59 ± 0.056 | 1.72 ± 0.1
23 | GCUGUCACCGAGAAACUGUGAAGUAUAUCUUAAACCUGGGCACUUAAAAGAUAUAUGGAGUUAGUAGUGCAACCUGCUCGGUCUGAUGAGUCCUCUGGGGGACGAAACAGC [UCUGGG] | 1.74 ± 0.026 | 1.88 ± 0.059
24 | GCUGUCACCGAGAAACUGUGAAGUAUAUCUUAAACCUGGGCACUUAAAAGAUAUAUGGAGUUAGUAGUGCAACCUGCUCGGUCUGAUGAGUCCAUCUCCGGACGAAACAGC [AUCUCC] | 1.806 ± 0.0081 | 1.9 ± 0.034
25 | GCUGUCACCGAGAAACUGUGAAGUAUAUCUUAAACCUGGGCACUUAAAAGAUAUAUGGAGUUAGUAGUGCAACCUGCUCGGUCUGAUGAGUCCUUUAUGGGACGAAACAGC [UUUAUG] | 1.707 ± 0.0064 | 1.84 ± 0.11
26 | GCUGUCACCGAGAAACUGUGAAGUAUAUCUUAAACCUGGGCACUUAAAAGAUAUAUGGAGUUAGUAGUGCAACCUGCUCGGUCUGAUGAGUCCGACUAAGGACGAAACAGC [GACUAA] | 1.55 ± 0.045 | 1.74 ± 0.12
